Patent US20250179429A1, “CELL CULTURE MEDIUM” (Auckland UniServices Limited, priority 2017, published 2025)
Like-named read-outs stand apart in the source and are kept apart here.

System: Human primary keratinocytes
Experiment: Keratinocyte growth in culture media: rhodamine B staining, confluency measured with Operetta plate reader
Type: cell-based

B1: KGF: Keratinocyte growth factor, encoded in humans by the FGF7 gene, binds FGFR2b (protein, UniProt P21781 32-194, looked up)
Fibroblast growth factor 7: CNDMTPEQMATNVNCSSPERHTRSYDYMEGGDIRVRRLFCRTQWYLRIDKRGKVKGTQEMKNNYNIMEIRTVAVGIVAIKGVESEFYLAMNKEGKLYAKKECNEDCNFKELILENHYNTYASAKWTHNGGEMFVALNQKGIPVRGKKTKKEQKTAHFLPMAIT
effect of added KGF on keratinocyte growth, FIG. 1: cannot rescue the growth | effect of added KGF on keratinocyte growth, FIG. 1 (added to Green's media + Y27632): fails to enhance keratinocyte growth | effect of added KGF on keratinocyte growth, FIG. 1 (added to base media + Y27632): stimulates growth | effect of adding KGF to Base medium on keratinocyte growth, FIG. 2 (in the presence of ROCK inhibitor SB772077B, no MEFs): critical component in Kelch's medium
